For experiment [1], the target named is T1, C10orf54 (antigen of the KD values in Table 42) (human, UniProt Q9H7M9 33-311, limits assumed).
T1 sequence: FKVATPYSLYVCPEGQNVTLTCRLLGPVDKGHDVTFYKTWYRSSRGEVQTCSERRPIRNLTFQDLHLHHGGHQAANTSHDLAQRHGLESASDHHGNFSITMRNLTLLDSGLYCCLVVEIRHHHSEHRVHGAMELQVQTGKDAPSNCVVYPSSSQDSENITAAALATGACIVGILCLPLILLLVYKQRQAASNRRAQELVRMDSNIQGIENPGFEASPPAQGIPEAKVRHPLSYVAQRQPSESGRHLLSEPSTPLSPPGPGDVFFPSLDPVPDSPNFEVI
The experiment is described as follows: method and antigen form not stated; footnote: low affinity antibody.

Experiment [2] concerns the target T2, full length cynomolgus monkey C10orf54 (construct CC4) (cynomolgus monkey, UniProt Q9H7M9 33-311 (human entry)).
T2 construct: also called C10orf54 Construct 4
T2 chain: T1 sequence with P6L, L24V, L25F, N145S, V148A, D155E, I205T, P217S, P223L, S251G
As to the kind of experiment: flow cytometry, transfected 293t cells, 2 ug/ml; stain = MFI >=20-fold over isotype control. The method, then:
(§1) To investigate epitope diversity of the anti-human C10orf54 antibodies, 293t cells were transfected with 1 of 10 different C10orf54 expression constructs that co-express a fluorescent marker. Two days after transfection, cells were stripped from the tissue culture plate, stained with 2 μg/ml anti-human C10orf54 antibody , washed, stained with anti-mouse IgG-Fc Alexa Fluor 647 polyclonal antibody, washed, and stained with the viability dye 4′,6-Diamidino-2-Phenylindole, Dihydrochloride. Upon acquisition of 10,000 live events on a flow cytometer, live cells marked with the fluorescent marker were analyzed for the degree of staining by the anti-human C10orf54 antibody. When the median fluorescence intensity fold-change relative to an isotype control antibody was at least 20-fold, the antibody was considered to stain the C10orf54 expression construct in question.

Experiment [3] concerns the target T3, chimeric C10orf54: first half of IgV human and remainder (including loop) mouse (construct CC7) (human/mouse chimera, UniProt Q9D659 33-308 (mouse entry)).
T3 construct: also called C10orf54 Construct 7; hsABCmmC10
T3 chain: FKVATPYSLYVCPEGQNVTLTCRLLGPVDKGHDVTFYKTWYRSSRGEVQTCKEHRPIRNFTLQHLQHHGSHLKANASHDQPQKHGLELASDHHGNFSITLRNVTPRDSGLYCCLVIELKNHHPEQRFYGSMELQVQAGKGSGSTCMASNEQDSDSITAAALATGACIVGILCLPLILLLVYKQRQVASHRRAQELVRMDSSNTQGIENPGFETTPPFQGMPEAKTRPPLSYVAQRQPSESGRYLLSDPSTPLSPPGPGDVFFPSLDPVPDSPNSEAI
The experiment is described as above. The method, then:
as §1

Experiment [4] has as its target T4, chimeric C10orf54: human with mouse loop (construct CC9) (human/mouse chimera, UniProt Q9H7M9 33-311).
T4 construct: also called C10orf54 Construct 9; hsC10mmLOOP
T4 chain: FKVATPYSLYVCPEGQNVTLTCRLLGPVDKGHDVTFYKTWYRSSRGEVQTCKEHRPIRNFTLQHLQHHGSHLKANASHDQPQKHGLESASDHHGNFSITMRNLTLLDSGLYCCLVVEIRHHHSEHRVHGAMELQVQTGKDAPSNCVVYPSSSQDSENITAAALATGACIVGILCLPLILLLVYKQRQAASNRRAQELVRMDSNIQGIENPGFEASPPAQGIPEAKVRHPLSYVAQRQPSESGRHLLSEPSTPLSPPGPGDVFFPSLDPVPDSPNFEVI
The description is as above. The method, then:
as §1

Experiment [5] has as its target T5, chimeric C10orf54: human IgV with mouse STALK (construct CC5) (human/mouse chimera).
T5 construct: also called C10orf54 Construct 5; hsIGVmmSTALK
T5 chain: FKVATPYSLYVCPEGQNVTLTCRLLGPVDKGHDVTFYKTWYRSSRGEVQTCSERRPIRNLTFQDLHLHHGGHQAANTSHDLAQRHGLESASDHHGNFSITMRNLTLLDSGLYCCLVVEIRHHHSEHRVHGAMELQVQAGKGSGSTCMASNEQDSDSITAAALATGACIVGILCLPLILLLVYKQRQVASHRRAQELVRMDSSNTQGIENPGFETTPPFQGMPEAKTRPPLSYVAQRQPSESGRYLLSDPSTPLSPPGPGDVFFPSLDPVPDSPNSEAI
The description is as above. The method, then: as §1

Residue numbers refer to the chain shown, from its start.

B1: murine monoclonal antibody 305A (antibody, V domains shown)
VH: DVQLQESGPGLVKPSQSLSLTCSVTGYSITSGYYWNWIRQFPGNKLEWMGYISYDGSNNYNPSLKNRISITRDTSKNQFFLKLNSVTTEDTATYYCARRHDYLSFAYWGQGTLVIVSA
VL: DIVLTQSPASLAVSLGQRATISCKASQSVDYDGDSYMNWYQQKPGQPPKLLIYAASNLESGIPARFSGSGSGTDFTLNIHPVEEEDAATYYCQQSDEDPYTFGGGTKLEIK
notes: Mouse hybridoma antibody
As a reminder, the Kd is the concentration at which binding is half-saturated. B1 displayed a Kd in experiment [1] of 20.8 nM. In addition, the binding result in experiment [2], in experiment [3], in experiment [4] and in experiment [5] was “binds” in each case.

The values are drawn from patent publication US20190177415A1 (PIERRE FABRE MEDICAMENT, published 2019).
